Columns and labels:
[1] = test system: T1, cyclic peptide P2, c(rLSKDK)
T1 sequence: RLSKDK

[2] = test system: T2, cyclic peptide P1, c(RLsKDK), cyclo(Arg-Leu-{β-Ser}-Lys-Asp-Lys)
T2 sequence: RLSKDK

[3] = test system: T3, cyclic peptide P3, c(RlSKDK)
T3 sequence: RLSKDK

purified recombinant ADAM8 was tested, and the “ADAM8 proteolytic activity, fluorogenic CD23 peptide, peptides at 100 nM” value (“ADAM8 proteolytic activity” below) [1] was “Cyclic peptides P2 and P3 showed inhibition of ADAM8 proteolytic activity”, the “ADAM8 proteolytic activity” value [2] was “cyclic peptide P1 showed the most marked inhibition” and the “ADAM8 proteolytic activity” value [3] was “Cyclic peptides P2 and P3 showed inhibition of ADAM8 proteolytic activity”.

Source: patent US20170107258
